Reference: IntAct's records for PubMed 27462807

Columns and labels:
tp53b_human TP53BP1 [1] = biological target: tp53b_human TP53BP1 (UniProt Q12888)
tp53b_human TP53BP1 [2] = biological target: tp53b_human TP53BP1 (UniProt Q12888); remark: listed apart in the source

tp53b_human TP53BP1, sequence (Q12888 whole entry): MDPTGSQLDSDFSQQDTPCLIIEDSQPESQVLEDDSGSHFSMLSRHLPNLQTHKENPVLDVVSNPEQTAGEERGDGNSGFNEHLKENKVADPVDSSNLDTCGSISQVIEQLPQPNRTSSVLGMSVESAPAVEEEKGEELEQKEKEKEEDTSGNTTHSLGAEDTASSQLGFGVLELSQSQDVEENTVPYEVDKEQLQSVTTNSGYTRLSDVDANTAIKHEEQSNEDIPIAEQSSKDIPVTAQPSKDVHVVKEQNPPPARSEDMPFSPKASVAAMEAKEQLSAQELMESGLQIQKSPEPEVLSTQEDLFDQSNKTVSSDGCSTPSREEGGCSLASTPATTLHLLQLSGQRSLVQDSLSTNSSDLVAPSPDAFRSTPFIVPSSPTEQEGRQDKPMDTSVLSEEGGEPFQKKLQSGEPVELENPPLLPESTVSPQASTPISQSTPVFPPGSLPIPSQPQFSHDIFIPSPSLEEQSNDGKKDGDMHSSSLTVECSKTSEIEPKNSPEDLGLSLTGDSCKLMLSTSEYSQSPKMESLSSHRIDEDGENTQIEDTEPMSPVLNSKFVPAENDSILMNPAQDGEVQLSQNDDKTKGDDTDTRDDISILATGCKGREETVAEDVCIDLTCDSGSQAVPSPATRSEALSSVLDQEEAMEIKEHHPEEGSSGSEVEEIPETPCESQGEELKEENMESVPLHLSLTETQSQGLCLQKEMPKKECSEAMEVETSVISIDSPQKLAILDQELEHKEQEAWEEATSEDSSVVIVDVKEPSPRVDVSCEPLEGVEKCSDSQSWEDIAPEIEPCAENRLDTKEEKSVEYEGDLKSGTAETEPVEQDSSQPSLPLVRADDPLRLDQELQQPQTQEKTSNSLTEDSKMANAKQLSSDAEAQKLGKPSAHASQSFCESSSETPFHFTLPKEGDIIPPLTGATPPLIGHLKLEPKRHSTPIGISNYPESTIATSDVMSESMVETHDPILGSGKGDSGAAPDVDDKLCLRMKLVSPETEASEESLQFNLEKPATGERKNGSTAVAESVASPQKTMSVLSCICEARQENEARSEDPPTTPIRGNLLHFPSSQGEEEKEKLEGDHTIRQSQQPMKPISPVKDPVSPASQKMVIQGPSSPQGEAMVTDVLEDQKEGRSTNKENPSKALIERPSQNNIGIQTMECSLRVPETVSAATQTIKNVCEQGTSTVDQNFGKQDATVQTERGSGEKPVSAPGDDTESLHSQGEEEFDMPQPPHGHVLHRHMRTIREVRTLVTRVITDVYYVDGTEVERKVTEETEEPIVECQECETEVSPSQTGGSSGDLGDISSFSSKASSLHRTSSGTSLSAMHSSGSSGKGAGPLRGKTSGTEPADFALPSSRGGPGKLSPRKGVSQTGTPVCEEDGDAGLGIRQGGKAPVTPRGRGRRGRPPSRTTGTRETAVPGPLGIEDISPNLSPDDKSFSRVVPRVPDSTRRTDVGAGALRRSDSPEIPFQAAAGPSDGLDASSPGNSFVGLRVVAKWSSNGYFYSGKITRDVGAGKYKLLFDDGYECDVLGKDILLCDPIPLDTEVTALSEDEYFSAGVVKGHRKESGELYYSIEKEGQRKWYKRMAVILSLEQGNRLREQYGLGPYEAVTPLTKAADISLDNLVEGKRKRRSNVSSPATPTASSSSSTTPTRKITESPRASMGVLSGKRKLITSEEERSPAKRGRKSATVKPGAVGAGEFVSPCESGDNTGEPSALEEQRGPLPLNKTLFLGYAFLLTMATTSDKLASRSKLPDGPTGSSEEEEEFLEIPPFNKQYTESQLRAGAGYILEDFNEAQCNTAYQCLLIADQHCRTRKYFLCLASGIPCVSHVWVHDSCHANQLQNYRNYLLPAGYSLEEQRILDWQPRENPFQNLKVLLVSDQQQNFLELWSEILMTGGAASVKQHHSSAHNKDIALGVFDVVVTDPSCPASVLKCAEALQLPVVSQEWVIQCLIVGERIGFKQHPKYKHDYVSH

effect of a mutation on the interaction (tp53b_human TP53BP1 [1])	effect of a mutation on the interaction (tp53b_human TP53BP1 [2])	Substance
with no effect		Histone H2B type 1-C/E/F/G/I (Homo sapiens) (from UniProt P62807) E106C
	with no effect	Histone H2B type 1-C/E/F/G/I (Homo sapiens) (from UniProt P62807) N85C
